Assay results: publication PMC9506113 (Pharmaceuticals, 2022)
“Also recorded” adds a separate entry of the source. Bridge positions count the residues as written; N and C are the ends. Square brackets hold non-standard residues; d marks the D form. Peptide text beside a SMILES is read from it. * marks the point of attachment. DOTA = O=C(O)CN1CCN(CC(=O)O)CCN(CC(=O)*)CCN(CC(=O)O)CC1; dPhe(4-NHCONH2) = NC(=O)Nc1ccc(C[C@@H](N)C(=O)O)cc1; Dihydroorotyl(S) = O=C1C[C@@H](C(=O)*)NC(=O)N1; Phe(4-Cl) = N[C@@H](Cc1ccc(Cl)cc1)C(=O)O; Phe(4-NH2) = Nc1ccc(C[C@H](N)C(=O)O)cc1

How the values were obtained:
in vivo = conditions: female, Swiss Nude-Foxn1nu, mouse, in vivo, iv, total radioactivity
Description: (§1) Healthy female Swiss Nude-Foxn1nu mice, of 7 weeks old, were obtained from Charles River (Ecully, France). The animals were housed and cared for according to French and European regulations on animal experimentation. All procedures with animals were submitted to the Institutional Animal Care and Use Committee of Oncodesign (CNREEA Agreement N°91). Animal physical well-being was monitored on a daily basis, and animal weight was measured at least twice a week. Tumours were induced by subcutaneously injecting 1 × 10^7 AR42J cells in 200 μL of RPMI 1640 into the right flank of the mice. In order to improve cell engraftment, AR42J tumour cell implantation was performed 72 h after whole-body irradiation with a γ-source (2 Gy 60Co; BioMep, Bretenières, France).
(§2) All test substances, including the mixture of radiolabelling buffer and 0.9% NaCl solution administered in the vehicle group, were intravenously injected into the caudal vein once a week for 4 consecutive weeks. The treatment schedule was determined by the growth kinetics of the AR42J tumour model. The day of randomisation was considered as day 0. […] Tumour growth delay was estimated by calculating the median time taken to reach a tumour volume of 850 mm^3. Animals were sacrificed once their tumour volume exceeded 1500 mm^3. The study was stopped on day 83 because only 1 and 3 animals remained with non-progressing tumours in groups 3 and 4, respectively.
(§3) Twelve mice (3 in each group) were sacrificed at 96 h after the fourth administration of the test substances to evaluate at the same time toxicity and haematological parameters, and radioactivity uptake in tumours and organs after 4 cycles. The remaining 50 mice (10 in both groups 1 and 4, and 15 in both groups 2 and 3) were either sacrificed for ethical reasons on the last day of the study, on day 83. At 96 h, following the last treatment administration, individual tumours and organs of interest were collected, blotted dry, weighted, fixed in formalin, and the amount of radioactivity present in each organ was quantified using a γ-counter. The radioactivity uptake in tumour and organs was determined and expressed as MBq/g of tissue as well as percentage injected dose/g of tissue (%ID/g).

[1] = system: AR42J pancreatic tumour-bearing mice; assay: In vivo biodistribution (radioactivity uptake in tumour and organs); conditions: for Tumour radioactivity uptake / Femur radioactivity uptake / Spleen radioactivity uptake / Adrenals radioactivity uptake / Kidneys radioactivity uptake / Tail radioactivity uptake: 96 h after fourth injection, mean; for Tumour radioactivity uptake: SST2 expression High; for Femur radioactivity uptake / Spleen radioactivity uptake: SST2 expression Minimal; for Adrenals radioactivity uptake: SST2 expression Moderate; for Kidneys radioactivity uptake / Tail radioactivity uptake: SST2 expression None; for Correlation of radioactivity uptake with SST2 expression levels in organs: except in the kidneys
Description: as §1, §2, §3

[2] = target: T1, SST2 (AR42J rat pancreatic tumour membranes) (Rattus norvegicus, UniProt P30680); assay: Saturation binding assay on AR42J cell membranes; conditions: AR42J cell membrane suspension 10 µg/well; radioligand 0.075-10 nM; one-site binding model; γ-counter; mean ± SEM
T1 construct: which is not the case for the AR42J model endogenously expressing SST2; host or cells: AR42J rat acinar pancreatic tumour cell line (membrane preparation)
Description: The SST2-expressing AR42J, acinar pancreatic tumour cell line derived from a transplantable tumour of a rat exocrine pancreas, was provided by ATCC (LGC Standards, Molsheim, France). Cells were cultured in RPMI 1640 medium (Dutscher, Bernolsheim, France), supplemented with 10% foetal calf serum (PAN-Biotech, Aidenbach, Germany), in a humidified atmosphere at 37 °C with 5% CO2. AR42J membranes were obtained by sonication in 50 mM Tris–HCl, pH 7.4, and centrifugation at 39,000× g for 10 min at 4 °C. The pellet was resuspended in the same buffer and centrifuged at 50,000 ×g for 10 min at 4 °C, and membranes in the resulting pellet were stored at −80 °C until further use.
Saturation binding assays were performed in vitro using AR42J cell membrane suspension (10 µg/well) incubated with increased concentrations (ranging between 0.075 and 10 nM) of the radioligand. […] Membrane-bound radio-peptide was counted in a γ-counter (COBRA 5003, Packard Instruments). The number of binding sites per cell was calculated and fitted to a one-site binding model in GraphPad Prism 8 to determine the dissociation constant (KD) and the number of binding sites (Bmax).

[3] = system: bone marrow, spleen, kidneys and other organs; assay: Histopathology of normal organs (treatment-related microscopic observations); type: in vivo, Swiss Nude-Foxn1nu mice; conditions: for Spleen, extramedullary haematopoiesis, mean score: vehicle 3.7; for Bone marrow, eosinophilic vacuolated cells, number of mice: vehicle 0
Description: Once fixed, tumours, spleen, bone marrow (femur), jejunum, colon, tail (injection site), and kidneys were processed to paraffin blocks and tissues slides produced for immunohistochemical analyses or stained with haematoxylin and eosin (H&E) or sirius red (collagen staining) for histopathological examination.
All the slides were evaluated by a board-certified veterinary pathologist (S.L.) using a light microscope (Olympus BX41). The pH2AX and SST2 signal intensities were scored using a semi-quantitative approach (H-score), by multiplying the signal intensity score (0, absent; 1, weak; 2, moderate; 3, strong) with the percentage of labelled cells. The H-score, which ranges from 0 to 300, gives the relative weight of staining in a given tumour sample. Regarding the histopathological examination, the number of mitoses was counted in the areas of tumours with the highest mitotic figures in 1 high-power field at the objective 40. The severity of fibrosis was evaluated on a classical toxicologic pathology scale ranging from 0 (absent) to 5 (severe).

SST2-positive NETs = conditions: in vivo; cited from earlier work
kidney = conditions: human, in vivo; cited from earlier work
human and rat SST2 = system: human and rat SST2; design: method as in PMID 19910453; conditions: ref [10]; cited from earlier work
[4] = 15 MBq, Tail uptake (injection site), 15 MBq x 4, 96 h after fourth injection, mean (SEM)
[5] = 15 MBq, Tumour uptake, 15 MBq, i.v. once a week x 4, 96 h after fourth injection, mean (SEM)
[6] = 15 MBq, compared with [^177Lu]Lu-DOTA-TATE at 15 or 30 MBq, 96 h

T1 sequence (P30680 whole entry): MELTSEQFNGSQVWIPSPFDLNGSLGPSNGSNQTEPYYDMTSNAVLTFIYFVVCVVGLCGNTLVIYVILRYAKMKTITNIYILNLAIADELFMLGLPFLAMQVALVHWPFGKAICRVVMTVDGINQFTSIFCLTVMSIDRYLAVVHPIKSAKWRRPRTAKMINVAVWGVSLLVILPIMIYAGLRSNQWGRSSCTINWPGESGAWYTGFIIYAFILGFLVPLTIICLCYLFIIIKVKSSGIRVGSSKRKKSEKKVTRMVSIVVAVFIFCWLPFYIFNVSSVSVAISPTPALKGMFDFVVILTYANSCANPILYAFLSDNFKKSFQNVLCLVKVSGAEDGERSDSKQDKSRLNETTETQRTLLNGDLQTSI

With `C[C@@H](O)[C@H](NC(=O)[C@@H]1CSSC[C@H](NC(=O)[C@@H](Cc2ccccc2)NC(=O)CN2CCN(CC(=O)O)CCN(CC(=O)O)CCN(CC(=O)O)CC2)C(=O)N[C@@H](Cc2ccc(O)cc2)C(=O)N[C@H](Cc2c[nH]c3ccccc23)C(=O)N[C@@H](CCCCN)C(=O)N[C@@H]([C@@H](C)O)C(=O)N1)C(=O)O` [[^177Lu]Lu-DOTA-TATE, metal not drawn] the tissue uptake at 96 h (in vivo; 15 MBq, Adrenals uptake) was 0.59 %ID/g, the tissue uptake at 96 h (in vivo; 15 MBq, Femur uptake) was 0.034 %ID/g and the tissue uptake at 96 h (in vivo; 15 MBq, Kidneys uptake) was 0.36 %ID/g. It also gave a tissue uptake at 96 h (in vivo; 15 MBq, Spleen uptake) of 0.018 %ID/g, a tissue uptake at 96 h (in vivo; [4]) of 0.055 %ID/g and a tissue uptake at 96 h (in vivo; [5]) of 5.6 %ID/g. It also gave a tissue uptake at 96 h (in vivo; 30 MBq, Adrenals uptake) of 0.6 %ID/g, a tissue uptake at 96 h (in vivo; 30 MBq, Femur uptake) of 0.022 %ID/g and a tissue uptake at 96 h (in vivo; 30 MBq, Kidneys uptake) of 0.51 %ID/g. For the same compound, the tissue uptake at 96 h (in vivo; 30 MBq, Spleen uptake) was 0.015 %ID/g, the tissue uptake at 96 h (in vivo; 30 MBq, Tail uptake (injection site), 30 MBq x 4, 96 h after fourth injection, mean (SEM)) was 0.042 %ID/g and the tissue uptake at 96 h (in vivo; 30 MBq, Tumour uptake, 30 MBq, i.v. once a week x 4, 96 h after fourth injection, mean (SEM)) was 5.8 %ID/g. The Tumour radioactivity uptake ([1]; 15 MBq x 4) was 1.0 MBq/g, the Femur radioactivity uptake ([1]; 15 MBq x 4) was 0.006 MBq/g and the Spleen radioactivity uptake ([1]; 15 MBq x 4) was 0.0032 MBq/g. For the same compound, the Adrenals radioactivity uptake ([1]; 15 MBq x 4) was 0.11 MBq/g, the Kidneys radioactivity uptake ([1]; 15 MBq x 4) was 0.066 MBq/g and the Tail radioactivity uptake ([1]; 15 MBq x 4) was 0.01 MBq/g. For the same compound, the “Correlation of radioactivity uptake with SST2 expression levels in organs” value (from here on “Correlation of radioactivity uptake”) ([1]; 15 MBq) was “overall well-correlated with SST2 expression levels in different organs, except in the kidneys”, the Tumour radioactivity uptake ([1]; 30 MBq x 4) was 2.2 MBq/g and the Femur radioactivity uptake ([1]; 30 MBq x 4) was 0.008 MBq/g. For the same compound, the Spleen radioactivity uptake ([1]; 30 MBq x 4) was 0.006 MBq/g, the Adrenals radioactivity uptake ([1]; 30 MBq x 4) was 0.23 MBq/g and the Kidneys radioactivity uptake ([1]; 30 MBq x 4) was 0.20 MBq/g. For the same compound, the Tail radioactivity uptake ([1]; 30 MBq x 4) was 0.016 MBq/g, the “Correlation of radioactivity uptake” value ([1]; 30 MBq) was “overall well-correlated with SST2 expression levels in different organs, except in the kidneys” and the Kd [2] was 0.48 ± 0.2 nM. The “Spleen, extramedullary haematopoiesis, mean score” value ([3]; 30 MBq x 4, 96 h) was 2.3 and the “Bone marrow, eosinophilic vacuolated cells, number of mice” value ([3]; 30 MBq x 4, end of study, 11 mice examined) was “one animal”.

`C[C@@H](O)[C@@H]1NC(=O)[C@H](CCCCN)NC(=O)[C@@H](Cc2ccc(NC(N)=O)cc2)NC(=O)[C@H](Cc2ccc(NC(=O)[C@@H]3CC(=O)NC(=O)N3)cc2)NC(=O)[C@H](NC(=O)[C@H](Cc2ccc(Cl)cc2)NC(=O)CN2CCN(CC(=O)O)CCN(CC(=O)O)CCN(CC(=O)O)CC2)CSSC[C@@H](C(=O)N[C@H](Cc2ccc(O)cc2)C(N)=O)NC1=O` [[^177Lu]Lu-satoreotide tetraxetan, metal not drawn] ({DOTA}-[Phe(4-Cl)][dC][Phe(4-NH2)](Dihydroorotyl(S))[dPhe(4-NHCONH2)]KTC[dY]-NH2; disulfide 2-7) gave a tissue uptake at 96 h (in vivo; 15 MBq, Adrenals uptake) of 0.7 %ID/g, a tissue uptake at 96 h (in vivo; 15 MBq, Femur uptake) of 0.08 %ID/g and a tissue uptake at 96 h (in vivo; 15 MBq, Kidneys uptake) of 2.9 %ID/g. For the same compound, the tissue uptake at 96 h (in vivo; 15 MBq, Spleen uptake) was 0.072 %ID/g, the tissue uptake at 96 h (in vivo; [4]) was 0.082 %ID/g and the tissue uptake at 96 h (in vivo; [5]) was 20 %ID/g. It also gave a Tumour radioactivity uptake ([1]; 15 MBq x 4) of 3.5 MBq/g, a Femur radioactivity uptake ([1]; 15 MBq x 4) of 0.014 MBq/g and a Spleen radioactivity uptake ([1]; 15 MBq x 4) of 0.013 MBq/g. The Adrenals radioactivity uptake ([1]; 15 MBq x 4) was 0.12 MBq/g, the Kidneys radioactivity uptake ([1]; 15 MBq x 4) was 0.51 MBq/g and the Tail radioactivity uptake ([1]; 15 MBq x 4) was 0.015 MBq/g. For the same compound, the “Mean femur radioactivity uptake versus [^177Lu]Lu-DOTA-TATE” value [1, 6] was “two times higher”, the “Mean kidney radioactivity uptake versus [^177Lu]Lu-DOTA-TATE” value [1, 6] was “up to eight times higher” and the “Mean tumour radioactivity uptake versus [^177Lu]Lu-DOTA-TATE” value [1, 6] was “up to three times higher; also recorded: approximately three times higher tumour uptake”. The “Correlation of radioactivity uptake” value ([1]; 15 MBq) was “overall well-correlated with SST2 expression levels in different organs, except in the kidneys”, the Safety profile (SST2-positive NETs) was “manageable safety profile” and the Kd [2] was 0.088 ± 0.01 nM. For the same compound, the “Bone marrow, myeloid/erythroid ratio, mean score” value ([3]; 15 MBq x 4, 96 h, vehicle 2.3) was 3.0, the “Spleen, extramedullary haematopoiesis, mean score” value ([3]; 15 MBq x 4, 96 h) was 2.3 and the “Bone marrow, eosinophilic vacuolated cells, number of mice” value ([3]; 15 MBq x 4, end of study, examined 11 (DOTATATE), 7 (satoreotide)) was “one animal”. For the same compound, the “Bone marrow, myeloid/erythroid ratio, mean score” value ([3]; 15 MBq x 4, end of study, vehicle 1.2) was 2.7 and the “Renal uptake and potential renal toxicity” value (kidney) was “limited”.

In the case of Pasireotide, the “Species difference human versus rat SST2” value (human and rat SST2) is given as “species dissimilarities between human and rat SST2”.
